This passage reports Kd results from US5622828, “High-affinity oligonucleotide ligands to secretory phospholipase A2 (sPLA2)” (Nexstar Pharmaceuticals, Inc.).

Residue numbers refer to the chain shown, from its start.

T1: secretory phospholipase A2 (sPLA2) (Homo sapiens, UniProt P14555 P14555:21-144)
T1 sequence: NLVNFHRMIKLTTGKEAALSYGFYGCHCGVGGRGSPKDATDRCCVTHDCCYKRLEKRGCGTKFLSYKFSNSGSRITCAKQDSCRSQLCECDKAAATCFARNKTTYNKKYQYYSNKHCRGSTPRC

B1: 71 (ssRNA)
RNA: GGGAGCUCAGAAUAAACGCUCAAUCUCAUGCUCGUCGCACGGCGUAACCUAUUUCGACAUGAGGCCCGGAUCCGGC
B2: NS13 (ssRNA)
RNA: GGGAGGACGAUGCGGUGAGCUUAGGAUAGGAGCAACAAGUAGAGUAGAGUGAUAACUAGGGUGGCCAGACGACUCGCCCGA
modifications: 2'-NH2 all C and U
B3: NN19.14 (ssRNA)
RNA: GGGAAAAGAAGACCGGCCGGCGCCAUAGCCGAGAUCCGAGGUGUUGAACGAUCCGAGAA
modifications: 2'-NH2 all C and U
B4: NS4 (ssRNA)
RNA: GGGAGGACGAUGCGGGUAGGGAUAAGCGAGUGUACAGCGAAUACGACUCGGAAUGCUUGGUGCGCCAGACGACUCGCCCGA
modifications: 2'-NH2 all C and U
B5: NS48 (ssRNA)
RNA: GGGAGGACGAUGCGGGCUAAGGGAAGACAAUGAGAUAGCAGACAAUCAACUACACCCAUGUGCGUCAGACGACUCGCCCGA
modifications: 2'-NH2 all C and U
B6: NN19.13 (ssRNA)
RNA: GGGAAAAGAAGACCGGCCGGCGCCAUAGCCGAGAUCCGAGGUGUUGAGACCAACCGAGAA
modifications: 2'-NH2 all C and U
B7: NS12 (ssRNA)
RNA: GGGAGGACGAUGCGGUGAAAGAGAAAGGUUGAGAUGAUUACAAGCGAAUUGGAUAAGUGUCUGGCCAGACGACUCGCCCGA
modifications: 2'-NH2 all C and U
B8: NS1 (ssRNA)
RNA: GGGAGGACGAUGCGGAUAAGGAGGAGCAAGCGAGAAAUUGAGAAGUAACAAGAUCGACAUGGCCCCAGACGACUCGCCCGA
modifications: 2'-NH2 all C and U
B9: NN30 (ssRNA)
RNA: GGGAAAAGCGAAUCAUACACAAGAGCCAGCGAGUGUCGACAGUGUGGGUGGAAGUGACGGGAGGAUUGGAGACGCUCCGCCAGAGACCAACCGAGAA
modifications: 2'-NH2 all C and U
B10: NS49 (ssRNA)
RNA: GGGAGGACGAUGCGGAUAAGGAUAAGAUCGAACGAGAGUGAACAAAGUUAAAUACAGUCUGGGGGCAGACGACUCGCCCGA
modifications: 2'-NH2 all C and U
B11: NS39 (ssRNA)
RNA: GGGAGGACGAUGCGGGUAGGGAUGAAGUGCGAUGUGAAUCCGGGUGCUAGCGAUGAUGUGUGCCCCAGACGACUCGCCCGA
modifications: 2'-NH2 all C and U
B12: NS6 (ssRNA)
RNA: GGGAGGACGAUGCGGAACUAAAAGACAGAGAGAAAACGACAAUACGAAGUACAUAUAACCCUGGCCAGACGACUCGCCCGA
modifications: 2'-NH2 all C and U
B13: NS14 (ssRNA)
RNA: GGGAGGACGAUGCGGAAAUGUGUUAGUGAAUGAUUGAGAGAAGAUAGAUGAUGUUGAAGUCUGGCCAGACGACUCGCCCGA
modifications: 2'-NH2 all C and U
B14: NS7 (ssRNA)
RNA: GGGAGGACGAUGCGGAGGAAAUGAAGUAGUGAGAGUAUAACAUGAUUAUGAAUACGUGAUGUGGCCAGACGACUCGCCCGA
modifications: 2'-NH2 all C and U
B15: NN19.11 (ssRNA)
RNA: GGGAAAAGAAGACCGGCCGGCGCCAUAGCCGAGAUCCGAGGUGUUGAACGAUAGACCAACCGAGAA
modifications: 2'-NH2 all C and U
B16: NS10 (ssRNA)
RNA: GGGAGGACGAUGCGGUGACAAAUGAGCAAGUAGCGAUAGAUGUGAUGGACAGAGACAGCCGGGGCCAGACGACUCGCCCGA
modifications: 2'-NH2 all C and U
B17: NS2 (ssRNA)
RNA: GGGAGGACGAUGCGGUAGUAACGGAUACUGAUCCGAGGUUAUAGUCACUAUAUCAUCCGCUGCGCCAGACGACUCGCCCGA
modifications: 2'-NH2 all C and U
B18: NN40 (ssRNA)
RNA: GGGAAAAGCGAAUCAUACACAAGACCCCUUGAGCUCGUGACGCAGGAGGAGGGCCGAGGAGGAAAGUCGUCACAGCUCCGCCAGAGACCAACCGAGAA
modifications: 2'-NH2 all C and U
B19: NN1 (ssRNA)
RNA: GGGAAAAGCGAAUCAUACACAAGACGGCGAGCAUGCGGCGAGUGGAGGGGGACUGAUGGAGGGCGAGACCGUGUGCUCCGCCAGAGACCAACCGAGAA
modifications: 2'-NH2 all C and U
B20: NN22 (ssRNA)
RNA: B19 RNA with G49A
modifications: 2'-NH2 all C and U
B21: NS18 (ssRNA)
RNA: GGGAGGACGAUGCGGAAGUAGAUGAUGGAUUGAGAUGUAAGUGUCAGUAUGAAGAGUCUCUGGGCCAGACGACUCGCCCGA
modifications: 2'-NH2 all C and U
B22: 86tF (ssRNA)
RNA: GGGAGCUCAGAAUAAACGCUCAACGCCUCAUGCCAAUGCGGGAGGGUGGGUGGUUCGACAUGAGGCCCGGAUCCGGC
modifications: 2'-F all C and U
B23: 11tF (ssRNA)
RNA: GGGAGCUCAGAAUAAACGCUCAACUUACGGGUAAAGCCGAGAAAAUGUAUUGCUUCGACAUGAGGCCCGGAUCCGGC
modifications: 2'-F all C and U
B24: 72F (ssRNA)
RNA: GGGAGCUCAGAAUAAACGCUCAAGACCUCUGCUUACAGCCCGGCUGAGACACUUCGACAUGAGGCCCGGAUCCGGC
modifications: 2'-F all C and U
B25: 73tF (ssRNA)
RNA: GGGAGCUCAGAAUAAACGCUCAACUUACAGUUCGGCUGAGAGAAGACGCAUACUUCGACAUGAGGCCCGGAUCCGGC
modifications: 2'-F all C and U
B26: NN10 (ssRNA)
RNA: GGGAAAAGCGAAUCAUACACAAGACCGGCCGGCGCCAUAGCCGAGAUCCGAGGUUGUACGAUGACAACUCAGUGCUCCGCCAGAGACCAACCGAGAA
modifications: 2'-NH2 all C and U
B27: NN2 (ssRNA)
RNA: GGGAAAAGCGAAUCAUACACAAGAGACCGGCCAGCCAAGGCGCUGAGAUCCGAGGUUUCAGAACCCAUCGGGUUGGCUCCGCCAGAGACCAACCGAGAA
modifications: 2'-NH2 all C and U
B28: NN5 (ssRNA)
RNA: GGGAAAAGCGAAUCAUACACAAGACCGGCCCCGCCAAUCAAGGGAGAUCCGAGGAAUUGGAAUGUUUGUGAGUGAGCUCCGCCAGAGACCAACCGAGAA
modifications: 2'-NH2 all C and U
B29: NN11 (ssRNA)
RNA: GGGAAAAGCGAAUCAUACACAAGACCGGCCGGGGAAACCCGAGGUCCGAGGUAACGCAUGGCGCCUCACCGAGUCGCUCCGCCAGAGACCAACCGAGAA
modifications: 2'-NH2 all C and U
B30: NN16 (ssRNA)
RNA: B29 RNA with G44A
modifications: 2'-NH2 all C and U
B31: NN29 (ssRNA)
RNA: GGGAAAAGCGAAUCAUACACAAGACCGGCCCGGUGUGUAGCCGGAGAUCCGAGACUUGCUGAACGAGGUGCCACGGCUCCGCCAGAGACCAACCGAGAA
modifications: 2'-NH2 all C and U
B32: NN41 (ssRNA)
RNA: B31 RNA with U38C, G65A
modifications: 2'-NH2 all C and U
B33: NN18 (ssRNA)
RNA: GGGAAAAGCGAAUCAUACACAAGAGGAUGGCGGCAAGGCGCGAAAGGGAGGAUCGAGGAGGAAUCGCGUCAGGAGCUCCGCCAGAGACCAACCGAGAA
modifications: 2'-NH2 all C and U
B34: NN39 (ssRNA)
RNA: GGGAAAAGCGAAUCAUACACAAGACUGGUUGUGCGGACCCAGUGAGUGGGAGGACGUGAGGGUGGCAGCUGGGCUCCGCCAGAGACCAACCGAGAA
modifications: 2'-NH2 all C and U

By Kd is commonly meant a measure of binding affinity in units of concentration. The low end stands for tighter binding, the high end for weaker binding.

The target of the first data set is T1, secretory phospholipase A2 (sPLA2). Briefly: filter; biphasic, Kd2 82 nM, mole fraction 0.60; TBSC with 5 mM CaCl2, 37 C. The settings on record: tags: supplied by Eli Lilly. On the procedure: (§1) The nitrocellulose filter partitioning method was used as described in SELEX Patent Applications to determine the affinity of RNA ligands for sPLA_2 and for other promins. Filter discs (nitrocellulose/cellulose acetate mixed matrix, 0.45 µm pore size, Millipore) were placed on a vacuum manifold and washed with 5 ml of TBSC buffer under vacuum. Reaction mixtures, containing ^32P labeled RNA pools and sPLA_2, were incubated in TBSC for 5 minutes at 37° C., filtered, and then immediately washed with 5 ml TBSC. The filters were air-dried and counted in a Beckman liquid scintillation counter without fluor.
(§2) The dissociation constants for representative members of families I–VI, orphan and other ligands were determined by nitrocellulose filter binding experiments and are listed in Table III. Unlike random RNA, all tested ligands from the 2'OH SELEXes bound biphasically.
The molecule B1 registered a Kd of 1.3 nM.

The target is the same in a further data set. As to the kind of experiment: filter; TBSC, 37 C. The note with it: tags: supplied by Eli Lilly. On the procedure:
as §1, §2
Consider B2, for which binding was put at a Kd of 15 nM.

The molecule B3 had a Kd of 1 nM. B4 showed a Kd of 24 nM.

Turning to B5, the equilibrium dissociation constant (Kd) came to 42 nM. With B6, the affinity, expressed as Kd, was 2.2 nM.

Molecule B7 had a Kd of 40 nM. B8 gave a Kd of 42 nM. B9: the Kd came out at 23 nM.

The molecule B10 had a Kd of 26 nM. The molecule B11 gave a Kd of 16 nM. In turn, B12 registered an equilibrium dissociation constant (Kd) of 28 nM. For the molecule B13, binding was characterised by a dissociation constant (Kd) of 12 nM.

Consider B14, for which the affinity, expressed as Kd, was 18 nM. GGGAAAAGAAGACCGGCCGGCGCCAUAGCCGAGAUCCGAGGUGUUGA (ssRNA, 2'-NH2 all C and U) [NN19.4] had a Kd of 7.3 nM.

Regarding B15, binding was characterised by a dissociation constant (Kd) of 0.5 nM.

With B16, the Kd amounted to 22 nM. Same read-out and setting: the value for B17 was 22 nM; that for B18 was 31 nM; that for B19 was 21 nM. Molecule B20 gave an equilibrium dissociation constant (Kd) of 36 nM. Regarding B21, the Kd was 52 nM.

Another data set shares this target. As to the kind of experiment: filter; monophasic; TBSC, 37 C. The note with it: tags: supplied by Eli Lilly. On the procedure: as §1, §2
The molecule B22 registered a Kd of 12 nM. As to B23, the Kd is 7 nM.

Regarding B24, the Kd was found to be 5.6 nM. In turn, B25 showed an equilibrium dissociation constant (Kd) of 14 nM.

Staying with this data set, now noted: tags: supplied by Eli Lilly; hairpin with asymmetric internal loop.
Molecule B26 registered a Kd of 0.4 nM.

For B27, the affinity, expressed as Kd, was 1.2 nM. Take B28: binding was characterised by a dissociation constant (Kd) of 4.6 nM.

Take B29: the Kd was 2.8 nM. B30 gave a Kd of 0.9 nM.

B31 came in with a Kd of 2.5 nM.

Take B32: binding was characterised by a dissociation constant (Kd) of 1.2 nM.

The target is the same in a further data set. Briefly: filter; like random pool; TBSC, 37 C. The settings on record: tags: supplied by Eli Lilly. Here is the method: as §1, §2
Molecule B33 returned an equilibrium dissociation constant (Kd) of 71 nM. Still for that read-out and setting: next, B34: 52 nM.
